In this data set the target is T1, DENR (in DENR-MCTS1 complex, coexpressed);MCTS1 (in DENR-MCTS1 complex, coexpressed) (human;human) (UniProt O43583+Q9ULC4).
T1 sequence 1: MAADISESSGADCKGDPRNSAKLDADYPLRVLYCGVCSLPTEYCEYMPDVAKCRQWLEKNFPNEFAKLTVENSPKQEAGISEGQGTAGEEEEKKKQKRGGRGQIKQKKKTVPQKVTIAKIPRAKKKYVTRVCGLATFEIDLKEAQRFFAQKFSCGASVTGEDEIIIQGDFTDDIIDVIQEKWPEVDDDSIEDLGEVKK
T1 sequence 2: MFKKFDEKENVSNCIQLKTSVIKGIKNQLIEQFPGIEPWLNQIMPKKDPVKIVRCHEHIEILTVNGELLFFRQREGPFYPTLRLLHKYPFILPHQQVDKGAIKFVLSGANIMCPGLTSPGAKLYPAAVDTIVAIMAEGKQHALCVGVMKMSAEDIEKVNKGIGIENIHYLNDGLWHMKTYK
Briefly: EMSA. Conditions: Scatchard, 5 replicates; general value, per-tRNA Kd only in S3E' Fig; 50 mM Tris pH 7.5, 150 mM NaCl, 15 mM imidazole (protein eluted in 300 mM imidazole, 2 mM DTT added), protein 0.25-16 uM, RNA 1 uM (3 uM yeast tRNA mix), 30 min. (In general: Mobility shift assays separate free from complexed probe on a gel.)

The term Kd denotes a measure of binding affinity in units of concentration. Read a low Kd as a tighter complex. On to tRNA, species not specified in text, for which the Kd worked out at 1.5 µM.

The values above are taken from publication PMC6013234.
